Measured values: patent US10543284B2, “Anti-c-Met antibody and anti-c-Met antibody-cytotoxic drug conjugate and pharmaceutical use thereof” (Suzhou Suncadia Biopharmaceuticals Co., Ltd., priority 2015, dated 2020)

Assays:
[1] = system: c-Met tyrosine residue 1349; assay: Agonist test: c-Met phosphorylation in A549 cells; assay type: cell-based, human; details: Antibody 20 μg/ml; activation by HGF (200 ng/ml) set as 100%
Method: The binding of HGF to c-Met activates both tyrosine phosphorylation of the c-Met molecule and the c-Met signaling pathway. Therefore, the activation of c-Met by HGF was used as a positive control of the agonist experiment, and human lung cancer cell line […] was used to evaluate the induced phophorylation of c-Met tyrosine residue 1349.
A549 cells were suspended in solution containing Ham's F12K, 2 mM glutamine (Invitrogen, #21127-022), and 10% (v/v) FBS (GIBCO, #10099141). 0.2 mL of cell suspension was taken and added to a 96-well plate (Corning, #3599), and the cell concentration was 60000 cells/well. The plate was incubated for 24 hours under 5% CO2 at 37° C. After 24 hours, the media in the 96-well plate was discarded, and 100 μl low serum medium (Ham's F12K+2 mM glutamine+0.5% FBS) was added. The cells were starved for 6 hours under 5% CO2 at 37° C. Antibodies were diluted using the above low serum medium to a final concentration of 20 μg/ml. The HGF concentration in the positive control was 200 ng/ml. The plate was incubated for 15 minutes at 37° C. […] After cell lysis, c-Met tyrosine phosphorylation was detected by ELISA. […] Data was read by a […] microplate reader (Supplier: Moleculer Devices; Model: MNR0643; Equip ID: TMRP001). […]

[2] = system: H441 cells; assay: Agonist test: H441 cell migration; assay type: cell-based, human; details: Antibody 20 μg/ml; migration affected by HGF (200 ng/ml) set as 100%
Text: If anti c-Met antibodies have agonist activity, the migration ability of cells could be affected. The H441 cell line expressing c-Met is used in the invention to evaluate the ability of c-Met antibodies to affect cell migration. H441 cells (ATCC, Cat No.: HTB-174) were resuspended to 500,000 cells/ml in RPMI 1640 medium (GIBCO, Cat No.: 11835-030) which contains 10% (v/v) FBS (GIBCO, Cat No.: 10099-141) and penicillin-streptomycin (GIBCO, Cat No.: 15070-063). The resuspended H441 cells were added to a 12-well culture plate (Costar, Cat No. 3513) at 1 ml/well, and were cultured for 3 days at 37° C. in 5% CO2. Cells were washed twice with PBS, and RPMI 1640 medium containing 0.5% FBS was added, and the plate was cultured for 16 hours at 37° C. in 5% CO2. The bottom of each well was scratched with 5 ml tips, and the plate was washed once with medium containing low concentration of FBS, and 1 ml of RPMI 1640 medium containing a low concentration of serum was added. The plate was marked, photos were taken for randomly selected scratch areas under an inverted microscope at 4× magnification. This time was set as the starting point. […] The percentage of cell migration was measured as the migration distance relative to the starting point divided by the migration distance of the test group relative to the starting point, and then multiplied by 100.

[3] = system: human gastric cancer MKN45 cell model; assay: MKN45 subcutaneous xenograft in BALB/c nude mice (Example 10); assay type: in vivo; details: 5 mg/kg antibody, terminated at day 25
Method: The human gastric cancer MKN45 cell model, obtained by subcutaneous xenograft into BALB/c nude mice, was used to evaluate the antitumor activity of the antibodies.
MKN45 cells were cultured in a monolayer in RPMI-1640 medium (10%/FBS) at 37° C. in 5% CO2. The cells were counted and collected during the logarithmic phase. The cells were resuspended in PBS to an appropriate concentration, and 0.1 ml 3×10^6 cells were subcutaneously injected into the right wing of mice (BALB/c nude mouse, female, 10-week old, 22-28 g, from Shanghai SLAC experimental animal ltd. Licence No. 2007000548777; Environment: SPF grade). When the tumors' average volume reached 114 mm^3, the tumors' weights and volumes were measured, and mice were then separated into groups for treatment. The control group was treated with PBS, and the antibody therapy group was treated with 5 mg/kg antibody of the invention, and the frequency was once a week and twice per time. The tumors' volumes and weights were measured twice a week, and the experiment was terminated at day 25. The formula for calculating tumor size was: tumor volume (mm^3)=0.5×(tumor length×tumor diameter^2).

B1: Ab-9: humanized anti c-Met antibody: heavy chain sequence of SEQ ID NO: 23 and light chain sequence of SEQ ID NO: 26 (antibody)
heavy: QVTLKESGPVLVKPTETLTLTCTVSGFSLPNYGVHWVRQPPGKALEWLAVIWSGGSTNYAAAFVSRLRISKDTSKSQVVFTMNNMDPVDTATYYCARNHDNPYNYAMDYWGQGTTVTVSSASTKGPSVFPLAPCSRSTSESTAALGCLVKDYFPEPVTVSWNSGALTSGVHTFPAVLQSSGLYSLSSVVTVPSSNFGTQTYTCNVDHKPSNTKVDKTVERKCCVECPPCPAPPVAGPSVFLFPPKPKDTLMISRTPEVTCVVVDVSHEDPEVQFNWYVDGVEVHNAKTKPREEQFNSTFRVVSVLTVVHQDWLNGKEYKCKVSNKGLPAPIEKTISKTKGQPREPQVYTLPPSREEMTKNQVSLTCLVKGFYPSDIAVEWESNGQPENNYKTTPPMLDSDGSFFLYSKLTVDKSRWQQGNVFSCSVMHEALHNHYTQKSLSLSPGK
light: DIVLTQSPASLAVSPGQRATITCRANKSVSTSTYNYLHWYQQKPGQPPKLLIYLASNLASGVPARFSGSGSGTDFTLTINPVEANDTANYYCQHSRDLPPTFGQGTKLEIKRTVAAPSVFIFPPSDEQLKSGTASVVCLLNNFYPREAKVQWKVDNALQSGNSQESVTEQDSKDSTYSLSSTLTLSKADYEKHKVYACEVTHQGLSSPVTKSFNRGEC
modifications: Ab-9 heavy chain; Ab-9 light chain
Activation of c-Met phosphorylation (%) [1]: 29.9% | H441 migration (%) [2]: 53% | inhibition rate [3]: 56%
